Results from patent US20070049521A1.

Experiments:
[1] = molecular target: human NPR-C (natriuretic peptide receptor C, clearance receptor), overexpressed on HEK293 cells (human) (UniProt P17342); assay: cell-based or functional assay
[2] = molecular target: NPR-C on ATDC5 cells (mouse chondrogenic cell line) (mouse) (UniProt P70180); assay: displacement of 125I-Ostn[83-133] from ATDC5 cells
Chain of NPR-C on ATDC5 cells (mouse chondrogenic cell line) (mouse) (P70180 41-536): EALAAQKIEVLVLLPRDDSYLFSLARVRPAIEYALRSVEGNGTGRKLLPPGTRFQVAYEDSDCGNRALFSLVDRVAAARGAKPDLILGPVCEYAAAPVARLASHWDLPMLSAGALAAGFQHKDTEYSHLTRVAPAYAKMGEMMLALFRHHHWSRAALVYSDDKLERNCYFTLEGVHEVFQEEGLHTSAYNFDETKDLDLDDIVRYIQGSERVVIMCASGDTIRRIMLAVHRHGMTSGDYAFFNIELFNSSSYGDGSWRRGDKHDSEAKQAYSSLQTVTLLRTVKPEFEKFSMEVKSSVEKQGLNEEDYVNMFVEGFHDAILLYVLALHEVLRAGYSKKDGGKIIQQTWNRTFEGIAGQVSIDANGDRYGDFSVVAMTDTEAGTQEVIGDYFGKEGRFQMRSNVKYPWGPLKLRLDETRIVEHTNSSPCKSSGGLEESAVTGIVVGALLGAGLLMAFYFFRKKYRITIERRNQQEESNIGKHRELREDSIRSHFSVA

Chain of human NPR-C (natriuretic peptide receptor C, clearance receptor), overexpressed on HEK293 cells (human) (P17342 27-541): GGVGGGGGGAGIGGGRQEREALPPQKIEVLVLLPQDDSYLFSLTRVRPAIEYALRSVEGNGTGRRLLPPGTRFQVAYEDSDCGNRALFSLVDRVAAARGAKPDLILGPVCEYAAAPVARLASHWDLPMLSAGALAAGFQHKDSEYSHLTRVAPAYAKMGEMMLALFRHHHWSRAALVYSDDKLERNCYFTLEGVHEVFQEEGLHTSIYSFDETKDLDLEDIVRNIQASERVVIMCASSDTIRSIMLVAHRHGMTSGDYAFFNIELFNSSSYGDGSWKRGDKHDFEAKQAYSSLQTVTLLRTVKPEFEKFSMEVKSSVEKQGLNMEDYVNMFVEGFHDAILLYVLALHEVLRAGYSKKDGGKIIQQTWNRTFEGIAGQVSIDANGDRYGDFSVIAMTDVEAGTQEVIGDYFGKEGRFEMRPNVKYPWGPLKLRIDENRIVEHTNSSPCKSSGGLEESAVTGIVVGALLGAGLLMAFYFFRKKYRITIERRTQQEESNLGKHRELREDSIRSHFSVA

Row | cGMP levels of NPR-C-expressing HEK293 cells with 0.1 nM ANP and 10 nM rhOstn[27-133] [1] [fold] | IC50 [2] [nM] | maximal inhibition at 1 µM, difference from that of cold Ostn[83-133] [2] [% less] | Substance
1 | 8 |  |  | N-terminal 6 histidine-tagged recombinant human Ostn rhOstn[27-133] (from UniProt G7NYP9 27-133) (ligand)
2 |  | 6.7 | 15 | rat C-ANF (peptide)
